From article PMC8804906, “Crystal structure of Pseudomonas aeruginosa FabB C161A, a template for structure-based design for new antibiotics” (F1000Research, 2021) come the findings set out here.

This data set deals with the molecule itself. In words: crystal structure; PaFabB C161A lacking the His-tag (9-23 mg/mL) in 20 mM Tris-HCl, 150 mM NaCl, 1 mM DTT, pH 7.4; sitting drop, 20°C; 0.2 M sodium iodide, 0.1 M Bis-Tris propane pH 7.5, PEG 3350, ethylene glycol; space group C 2 2 21, 2 protein molecules in the asymmetric unit; 1.3 Å.

B1: Pseudomonas aeruginosa FabB C161A (3-oxoacyl-[acyl-carrier-protein] synthase 1), without His-tag (enzyme)
chain: MRRVVITGLGIVSCLGNDKDTVSANLRAGRPGIRFNPSYAEMGLRSHVSGSVDLNLEELIDRKVFRFMGDAAAYAYLAMEQAIKDSGLTPEQISNPRTGLIAGSGGASTLNQMEAIDTLREKGVKRIGPYRVTRTMGSTVSACLATPFQIKGVNYSISSAAATSAHCIGQAMEQIQLGKQDVVFAGGGEEEHWSQSCLFDAMGALSTQYNETPEKASRAYDAKRDGFVIAGGGGMVVVEELEHALKRGAKIYAEIVGYGATSDGYDMVAPSGEGAIRCMQQALATVDAPIDYLNTHGTSTPVGDVAEIRGVREVFGDKAPAISSTKSLSGHSLGAAGVHEAIYCLLMMEGGFIAGSANIDELDPEVADLPILRETRENAKLDTVMSNSFGFGGTNATLVLKRWQG
notes: FabB (3-oxoacyl-[acyl-carrier-protein] synthase 1) of P. aeruginosa PA14, ORF PA14_43690, with the point mutation C161A; gene synthesised and cloned NdeI/BamHI into pET-28a(+)-TEV; 808 protein residues modelled in the dimer; also called PaFabB C161A; cleaved PaFabB C161A; not shown: His6, N-terminal, cleaved
As usually defined, the stoichiometry N is a count of units in the complex or per binding partner. Turning to B1, the “stoichiometry N” value was determined as 2.
